Experimental data as given in patent US20130209454A1.
Substitutions are numbered along the chain they refer to. Numbers in names are those of the source.

Columns and labels:
Experiment in all cases: cell-based or functional assay
[1] = molecular target: HIV-1 Env of strain TRO.11 (HIV-1)
[2] = molecular target: HIV-1 Env of strain SC422661.8 (HIV-1)
[3] = molecular target: HIV-1 Env of strain AC10.0.29 (HIV-1)
[4] = molecular target: HIV-1 Env of strain CAP45.2.00.G3 (HIV-1)
[5] = molecular target: HIV-1 Env of strain CAP210.2.00.E8 (HIV-1)
[6] = molecular target: HIV-1 Env of strain T257-31 (HIV-1)
[7] = molecular target: HIV-1 strain ZM109F.PB4 envelope (gp120) (HIV-1)
[8] = molecular target: HIV-1 Env of strain ZM214M.PL15 (HIV-1)
[9] = molecular target: HIV-1 Env of strain P1981_C5_3 (HIV-1)
[10] = molecular target: HIV-1 Env of strain 211-9 (HIV-1)
[11] = molecular target: HIV-1 Env of strain HIV-16845-2.22 (HIV-1)
[12] = molecular target: HIV-1 Env of strain ZM247v1(Rev-) (HIV-1)
[13] = molecular target: HIV-1 Env of strain TROJO4551.58 (HIV-1)
[14] = molecular target: HIV-1 Env of strain 3817.v2.c59 (HIV-1)
[15] = molecular target: HIV-1 strain X1193_c1 envelope (gp120) (HIV-1)
[16] = molecular target: HIV-1 strain CNE21 envelope (gp120) (HIV-1)
[17] = molecular target: HIV-1 strain CNE17 envelope (gp120) (HIV-1)
[18] = molecular target: HIV-1 strain 0330.v4.c3 envelope (gp120) (HIV-1)
[19] = molecular target: HIV-1 Env of strain ZM233M.PB6 (HIV-1)
[20] = molecular target: HIV-1 Env of strain 6545.v4.c1 (HIV-1)
[21] = molecular target: HIV-1 Env of strain 0260.v5.c36 (HIV-1)
[22] = molecular target: HIV-1 Env of strain 6540.v4.c1 (HIV-1)
[23] = molecular target: HIV-1 Env of strain 235-47 (HIV-1)
[24] = molecular target: HIV-1 Env of strain 246F C1G (HIV-1)
[25] = molecular target: HIV-1 Env of strain 249M B10 (HIV-1)
[26] = molecular target: HIV-1 Env of strain 263-8 (HIV-1)
[27] = molecular target: HIV-1 Env of strain 191955_A11 (HIV-1)
[28] = molecular target: HIV-1 Env of strain 3365.v2.c2 (HIV-1)
[29] = molecular target: Env of HIV-1 strain 231965.c01 (HIV-1)
[30] = molecular target: Env of HIV-1 strain THRO4156.18 (HIV-1)
[31] = molecular target: Env of HIV-1 strain C4118.c09 (HIV-1)
[32] = molecular target: Env of HIV-1 strain 1056_10_TA11_1826 (HIV-1)
[33] = molecular target: Env of HIV-1 strain MS208.A1 (HIV-1)
[34] = molecular target: Env of HIV-1 strain CNE53 (HIV-1)
[35] = molecular target: Env of HIV-1 strain 62357_14_D3_4589 (HIV-1)
[36] = molecular target: Env of HIV-1 strain Q23.17 (HIV-1)
[37] = molecular target: Env of HIV-1 strain Du172.17 (HIV-1)
[38] = molecular target: Env of HIV-1 strain 0260.v5.c36 (HIV-1)
[39] = molecular target: Env of HIV-1 strain 3016.v5.c45 (HIV-1)
[40] = molecular target: Env of HIV-1 strain TRJO4551.58 (HIV-1)
[41] = molecular target: Env of HIV-1 strain CAAN5342.A2 (HIV-1)
[42] = molecular target: Env of HIV-1 strain ZM247v1(Rev-) (HIV-1)
[43] = molecular target: Env of HIV-1 strain BJOX028000.10.3 (HIV-1)
[44] = molecular target: Env of HIV-1 strain BJOX010000.06.2 (HIV-1)
[45] = molecular target: Env of HIV-1 strain 3103.v3.c10 (HIV-1)
[46] = molecular target: Env of HIV-1 strain ZM135M.PL10a (HIV-1)
[47] = molecular target: Env of HIV-1 strain 3365.v2.c2 (HIV-1)
[48] = molecular target: Env of HIV-1 strain P1981_C5_3 (HIV-1)
[49] = molecular target: Env of HIV-1 strain SC422661.8 (HIV-1)
[50] = molecular target: Env of HIV-1 strain 231966.c02 (HIV-1)
[51] = molecular target: Env of HIV-1 strain CNE8 (HIV-1)

B1: NIH45-46^G54Y IgG (antibody, name in Kabat numbering, V domains shown)
VH: QVRLSQSGGQMKKPGESMRLSCRASGYEFLNCPINWIRLAPGRRPEWMGWLKPRYGAVNYARKFQGRVTMTRDVYSDTAFLELRSLTSDDTAVYFCTRGKYCTARDYYNWDFEHWGRGAPVTVSS
VL: EIVLTQSPATLSLSPGETAIISCRTSQSGSLAWYQQRPGQAPRLVIYSGSTRAAGIPDRFSGSRWGADYNLSISNLESGDFGVYYCQQYEFFGQGTKVQVDI
With B1 the neutralization IC50 [1] was 0.1 µg/mL, the neutralization IC50 [2] was 0.06 µg/mL and the neutralization IC50 [3] was 0.4 µg/mL. It also gave a neutralization IC50 [4] of 45 µg/mL, a neutralization IC50 [5] of over 50 µg/mL and a neutralization IC50 [6] of 0.18 µg/mL. For the same binder, the neutralization IC80 [7] was 0.168 µg/mL, the neutralization IC50 [8] was 0.06 µg/mL and the neutralization IC50 [9] was 0.04 µg/mL. For the same binder, the neutralization IC50 [10] was over 50 µg/mL, the neutralization IC50 [11] was 0.59 µg/mL and the neutralization IC50 [12] was 0.42 µg/mL. For the same binder, the neutralization IC50 [13] was 0.03 µg/mL, the neutralization IC50 [14] was over 50 µg/mL and the neutralization IC80 [15] was 0.024 µg/mL. For the same binder, the neutralization IC80 [16] was 0.29 µg/mL, the neutralization IC80 [17] was 0.264 µg/mL and the neutralization IC80 [18] was 0.09 µg/mL. For the same binder, the neutralization IC50 [19] was 0.16 µg/mL.

B2: NIH45-46^G54W(HC), S28Y(LC) (antibody, V domains shown)
VH: B1 VH with Y55W
VL: B1 VL with S28Y
Work on B2 yielded an IC50, pseudovirus neutralization [6] of 0.126 µg/mL, an IC50, pseudovirus neutralization [20] of 15.2 µg/mL and an IC50, pseudovirus neutralization [8] of 0.036 µg/mL. The IC50, pseudovirus neutralization [9] was 0.012 µg/mL, the IC50, pseudovirus neutralization [21] was 0.032 µg/mL and the IC50, pseudovirus neutralization [10] was 0.253 µg/mL. For the same binder, the IC50, pseudovirus neutralization [11] was 0.38 µg/mL, the IC50, pseudovirus neutralization [12] was 0.001 µg/mL and the IC50, pseudovirus neutralization [22] was over 50 µg/mL. It also gave an IC50, pseudovirus neutralization [23] of 0.001 µg/mL, an IC50, pseudovirus neutralization [24] of 0.036 µg/mL and an IC50, pseudovirus neutralization [14] of 5.14 µg/mL. The IC50, pseudovirus neutralization [25] was 0.001 µg/mL, the IC50, pseudovirus neutralization [26] was 0.018 µg/mL and the IC50, pseudovirus neutralization [19] was 0.011 µg/mL. It also gave an IC50, pseudovirus neutralization [27] of 0.013 µg/mL and an IC50, pseudovirus neutralization [28] of 0.014 µg/mL.

B3: NIH45-46^G54W (antibody, V domains shown)
VH: B1 VH with Y55W
VL: B1 VL
In the case of B3, the IC80 [29] is reported as 0.035 µg/mL, the IC80 [30] is reported as 1.81 µg/mL and the IC50, pseudovirus neutralization [6] is reported as 0.13 µg/mL. The IC80 [31] was 0.087 µg/mL, the IC50, pseudovirus neutralization [20] was 18.9 µg/mL and the IC80 [32] was 0.16 µg/mL. It also gave an IC50, pseudovirus neutralization [8] of 0.03 µg/mL, an IC80 [33] of 0.17 µg/mL and an IC50, pseudovirus neutralization [9] of 0.02 µg/mL. The IC50, pseudovirus neutralization [21] was 0.117 µg/mL, the IC50, pseudovirus neutralization [10] was 16.4 µg/mL and the IC80 [34] was 0.005 µg/mL. The IC50, pseudovirus neutralization [11] was 0.45 µg/mL, the IC80 [35] was 0.07 µg/mL and the IC50, pseudovirus neutralization [12] was 0.32 µg/mL. The IC50, pseudovirus neutralization [22] was over 50 µg/mL, the IC50, pseudovirus neutralization [23] was 0.001 µg/mL and the IC50, pseudovirus neutralization [24] was 0.315 µg/mL. For the same binder, the IC50, pseudovirus neutralization [14] was over 50 µg/mL, the IC80 [36] was 0.03 µg/mL and the IC80 [37] was 42.9 µg/mL. It also gave an IC80 [38] of 0.399 µg/mL, an IC80 [39] of 15.4 µg/mL and an IC80 [40] of 0.05 µg/mL. It also gave an IC80 [41] of 0.21 µg/mL, an IC80 [42] of 2.6 µg/mL and an IC80 [43] of 0.002 µg/mL. It also gave an IC80 [44] of 4.5 µg/mL, an IC80 [45] of 0.56 µg/mL and an IC80 [46] of 0.16 µg/mL. For the same binder, the IC50, pseudovirus neutralization [25] was 0.001 µg/mL, the IC50, pseudovirus neutralization [26] was 0.001 µg/mL and the IC80 [47] was 0.056 µg/mL. It also gave an IC80 [48] of 0.07 µg/mL, an IC50, pseudovirus neutralization [19] of 0.02 µg/mL and an IC80 [49] of 0.07 µg/mL. The IC50, pseudovirus neutralization [27] was 0.015 µg/mL, the IC50, pseudovirus neutralization [28] was 0.01 µg/mL and the IC80 [50] was 0.11 µg/mL. The IC80 [51] was 0.24 µg/mL.

B4: NIH45-46^G54W IgG (antibody, name in Kabat numbering, V domains shown)
VH: B1 VH with Y55W
VL: B1 VL
Binder B4 has a neutralization IC50 [1] of 0.09 µg/mL, a neutralization IC50 [2] of 0.03 µg/mL and a neutralization IC50 [3] of 0.2 µg/mL. It also gave a neutralization IC50 [4] of 6.6 µg/mL, a neutralization IC50 [5] of 41 µg/mL and a neutralization IC50 [6] of 0.13 µg/mL. For the same binder, the neutralization IC80 [7] was 0.07 µg/mL, the neutralization IC50 [8] was 0.03 µg/mL and the neutralization IC50 [9] was 0.02 µg/mL. It also gave a neutralization IC50 [10] of 16.4 µg/mL, a neutralization IC50 [11] of 0.45 µg/mL and a neutralization IC50 [12] of 0.32 µg/mL. For the same binder, the neutralization IC50 [13] was 0.01 µg/mL, the neutralization IC50 [14] was over 50 µg/mL and the neutralization IC80 [15] was 0.009 µg/mL. The neutralization IC80 [16] was 0.16 µg/mL, the neutralization IC80 [17] was 0.127 µg/mL and the neutralization IC80 [18] was 0.11 µg/mL. It also gave a neutralization IC50 [19] of 0.02 µg/mL.

B5: NIH45-46^G54F IgG (antibody, name in Kabat numbering, V domains shown)
VH: B1 VH with Y55F
VL: B1 VL
In the case of B5, the neutralization IC50 [1] is reported as 0.08 µg/mL, the neutralization IC50 [2] is reported as 0.02 µg/mL and the neutralization IC50 [3] is reported as 0.3 µg/mL. For the same binder, the neutralization IC50 [4] was over 50 µg/mL, the neutralization IC50 [5] was over 50 µg/mL and the neutralization IC50 [6] was 0.17 µg/mL. For the same binder, the neutralization IC80 [7] was 0.17 µg/mL, the neutralization IC50 [8] was 0.09 µg/mL and the neutralization IC50 [9] was 0.03 µg/mL. For the same binder, the neutralization IC50 [10] was over 50 µg/mL, the neutralization IC50 [11] was 0.59 µg/mL and the neutralization IC50 [12] was 0.28 µg/mL. For the same binder, the neutralization IC50 [13] was 0.03 µg/mL, the neutralization IC50 [14] was over 50 µg/mL and the neutralization IC80 [15] was 0.026 µg/mL. For the same binder, the neutralization IC80 [16] was 0.66 µg/mL, the neutralization IC80 [17] was 0.287 µg/mL and the neutralization IC80 [18] was 0.13 µg/mL. For the same binder, the neutralization IC50 [19] was 0.22 µg/mL.

B6: NIH45-46^G54W(HC) S28Y(LC) (antibody, V domains shown)
VH: B1 VH with Y55W
VL: B1 VL with S28Y
B6 showed an IC80 [29] of 0.035 µg/mL, an IC80 [30] of 2.74 µg/mL and an IC80 [31] of 0.058 µg/mL. For the same binder, the IC80 [32] was 0.289 µg/mL, the IC80 [33] was 0.089 µg/mL and the IC80 [34] was 0.039 µg/mL. It also gave an IC80 [35] of 0.084 µg/mL, an IC80 [36] of 0.05 µg/mL and an IC80 [37] of 0.125 µg/mL. For the same binder, the IC80 [38] was 0.084 µg/mL, the IC80 [39] was 0.037 µg/mL and the IC80 [40] was 0.02 µg/mL. The IC80 [41] was 0.299 µg/mL, the IC80 [42] was 0.034 µg/mL and the IC80 [43] was 0.006 µg/mL. The IC80 [44] was 5.04 µg/mL, the IC80 [45] was 0.594 µg/mL and the IC80 [46] was 0.163 µg/mL. It also gave an IC80 [47] of 0.049 µg/mL, an IC80 [48] of 0.045 µg/mL and an IC80 [49] of 0.09 µg/mL. It also gave an IC80 [50] of 0.076 µg/mL and an IC80 [51] of 0.156 µg/mL.
